Experiments:
SAXS = biological target: the molecule itself; assay: SAXS
[1] = biological target: MBP-PDZ (PDZ domain of PICK1 fused to MBP) (human, UniProt Q9NRD5 22-105); assay: ITC

| Binder | stoichiometry N (SAXS) | Kd [1] [nM] |
| --- | --- | --- |
| MBP-PICK1 fusion protein (natural protein, human, UniProt Q9NRD5 1-415, looked up) MFADLDYDIEEDKLGIPTVPGKVTLQKDAQNLIGISIGGGAQYCPCLYIVQVFDNTPAALDGTVAAGDEITGVNGRSIKGKTKVEVAKMIQEVKGEVTIHYNKLQADPKQGMSLDIVLKKVKHRLVENMSSGTADALGLSRAILCNDGLVKRLEELERTAELYKGMTEHTKNLLRAFYELSQTHRAFGDVFSVIGVREPQPAASEAFVKFADAHRSIEKFGIRLLKTIKPMLTDLNTYLNKAIPDTRLTIKKYLDVKFEYLSYCLKVKEMDDEEYSCIALGEPLYRVSTGNYEYRLILRCRQEARARFSQMRKDVLEKMELLDQKHVQDIVFQLQRLVSTMSKYYNDCYAVLRDADVFPIEVDLAHTTLAYGLNQEEFTDGEEEEEEEDTAAGEPSRDTRGAAGPLDKGGSWCDS | 2 |  |
| RHWLKV [DAT C-terminal tail peptide (6 aa)] |  | ~1900 |

From publication PMC4454178 (Molecular Biology of the Cell, 2015)
